Source: paper PMC8909805, “Anticancer Activity of (S)-5-Chloro-3-((3,5-dimethylphenyl)sulfonyl)-N-(1-oxo-1-((pyridin-4-ylmethyl)amino)propan-2-yl)-1H-indole-2-carboxamide (RS4690), a New Dishevelled 1 Inhibitor” (Cancers, 2022)
Each block holds one molecule with its values, some of them ahead of it.

Legend:
DVL1 binding to FZD4 = target: T1, DVL1 binding to FZD4 (Homo sapiens, UniProt O14640); test: Inhibition of DVL1 (DVL-GFP) recruitment by FZD4 at the plasma membrane of HEK293 cells; assay type: cell-based; conditions: HEK293 cells co-transfected with HA-FZD4 and GFP-DVL-1; 24 h treatment; read-out: EC50 ± SD DVL1 Binding Inhibition
T1 construct: host or cells: HEK293
T1 sequence (O14640 1-695): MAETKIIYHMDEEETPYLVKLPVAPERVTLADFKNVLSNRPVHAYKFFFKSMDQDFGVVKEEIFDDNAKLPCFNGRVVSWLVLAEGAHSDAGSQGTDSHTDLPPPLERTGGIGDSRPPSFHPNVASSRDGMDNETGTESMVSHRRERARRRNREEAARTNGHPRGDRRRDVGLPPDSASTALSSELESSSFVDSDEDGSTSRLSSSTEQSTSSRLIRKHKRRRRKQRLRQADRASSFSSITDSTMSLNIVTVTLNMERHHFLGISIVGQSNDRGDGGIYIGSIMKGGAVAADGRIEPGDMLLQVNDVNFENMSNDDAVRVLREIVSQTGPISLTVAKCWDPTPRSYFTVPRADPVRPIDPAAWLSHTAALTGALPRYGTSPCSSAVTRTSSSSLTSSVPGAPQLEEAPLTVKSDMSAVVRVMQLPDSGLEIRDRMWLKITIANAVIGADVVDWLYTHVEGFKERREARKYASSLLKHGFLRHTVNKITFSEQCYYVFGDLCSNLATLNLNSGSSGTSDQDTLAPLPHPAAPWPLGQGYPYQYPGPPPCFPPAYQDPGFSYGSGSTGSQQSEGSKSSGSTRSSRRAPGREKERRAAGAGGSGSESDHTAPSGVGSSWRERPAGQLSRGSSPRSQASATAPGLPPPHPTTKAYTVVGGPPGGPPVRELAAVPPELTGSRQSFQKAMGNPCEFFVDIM
Procedure: HEK293 cells were seeded in 96-well tissue culture plates at a density of 5 × 10 ^3/well. After 16–24 h seeding, cells were co-transfected with HA-FZD4-wt (0.04 µg/well) and GFP-tagged DVL-1 (0.04 µg/well) using PEI (0.25 µL/well) in a final volume of 100 µL/well. After 24 h of transfection, the medium was replaced and supplemented with the indicated compounds diluted in culture medium. After 24 h of treatment, cells were fixed in 3.7% formaldehyde freshly diluted in PBS for 30 min at RT, quenched with 0.1 M glycine/PBS for 30 min at RT, and washed with PBS. Samples were observed under a Leica confocal fluorescent microscope. Inhibition of DVL recruitment was measured by counting the percentage of cells losing GFP-DVL-1 localization on the PM. Experiments were performed in triplicate, and the standard deviations are indicated.
The crucial role played by PDZ domains in the spreading of cellular signals and their aberrant activations in many human diseases makes the PDZ domains very attractive targets for drug discovery. […] To identify new DVL1 inhibitors, we followed a virtual screening approach by fixing as the main filter a pharmacophoric model. We speculated that compound 2, the recently reported inhibitor of NHERF1 PDZ1 domain [26], may be able also to bind the DVL PDZ domain. The activity of compound 2 was assayed in HEK293 cells transiently expressing both HA-tagged-FZD4 (HA-FZD4) and the chimeric construct DVL-GFP. In the absence of HA-FZD4, DVL-GFP is localized in punctate intracellular structures known as signalosomes. In the presence of FZD-4 expression, DVL-GFP is recruited on the PM of the cell showing a drastic change in localization. As previously reported, drugs acting as inhibitors of FZD4/DVL binding reduce the amount of DVL-GFP recruited on the PM. […] Thus, we used the information gained from the binding mode of compound 2 to design a pharmacophore model that would lead to the identification of new DVL1 PDZ binders. At the same time, to better distinguish between the inhibitory activities of DVL1 and NHERF1, we added a new query to the pharmacophore model. Actually, comparing the PDZ structures of the studied proteins, we identified a significant difference. The upper part of the carboxylic binding loop was delimited by Tyr24, Ile79 and Val86 for NHERF1, while we observed Leu12, Val75 and Ile81, respectively, for DVL1. […] This peculiar feature of the DVL1 PDZ was included in our pharmacophore model by adding a hydrophobic query to obtain the required selectivity (Figure S1, Supplementary Materials). […] Thus, for each molecule, we obtained 10 conformations, and all of the proposed binding poses (7000 molecules per 10 conformations) were scored by the fitting to the pharmacophore model. […]

HA-tagged FZD4wt (human) = HA-tagged FZD4wt (human) (UniProt Q9ULV1)
Chain of HA-tagged FZD4wt (human) (Q9ULV1 37-537): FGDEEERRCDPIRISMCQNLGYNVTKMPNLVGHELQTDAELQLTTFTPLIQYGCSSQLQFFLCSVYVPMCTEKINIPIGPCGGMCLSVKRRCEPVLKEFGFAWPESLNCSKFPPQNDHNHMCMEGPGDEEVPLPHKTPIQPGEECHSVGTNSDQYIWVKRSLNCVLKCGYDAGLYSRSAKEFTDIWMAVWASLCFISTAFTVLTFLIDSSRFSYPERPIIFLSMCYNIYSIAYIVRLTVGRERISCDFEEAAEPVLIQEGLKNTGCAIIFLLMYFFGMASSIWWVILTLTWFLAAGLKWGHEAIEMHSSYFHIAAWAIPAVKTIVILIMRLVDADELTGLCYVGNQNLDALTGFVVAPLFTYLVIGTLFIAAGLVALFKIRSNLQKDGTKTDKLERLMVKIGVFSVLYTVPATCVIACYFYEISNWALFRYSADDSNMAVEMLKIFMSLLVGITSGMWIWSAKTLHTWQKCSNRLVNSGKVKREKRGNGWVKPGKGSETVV

EC50 (DVL1 binding to FZD4): 5.1 ± 0.09 µM
Molecule: O=C(Nc1ccc(CO)cc1)c1[nH]c2ccc(Cl)cc2c1Cc1ccccc1 [Compound 2, 3-benzyl-5-chloro-N-(4-(hydroxymethyl)phenyl)-1H-indole-2-carboxamide, reference compound]

EC50 of the small molecule 2 for inhibition of GFP-DVL-1 recruitment to the plasma membrane by HA-FZD4 in HEK293 cells (percentage of cells losing PM localisation; 'DVL1 Binding Inhibition') (HA-tagged FZD4wt (human)): 5.1 µM
EC50 of the small molecule (R)-1 for inhibition of GFP-DVL-1 recruitment to the plasma membrane by HA-FZD4 in HEK293 cells (percentage of cells losing PM localisation; 'DVL1 Binding Inhibition') (HA-tagged FZD4wt (human)): 29.5 µM
EC50 of the small molecule (S)-1 for inhibition of GFP-DVL-1 recruitment to the plasma membrane by HA-FZD4 in HEK293 cells (percentage of cells losing PM localisation; 'DVL1 Binding Inhibition') (HA-tagged FZD4wt (human)): 0.49 µM
B1: GFP-tagged DVL-1 (natural protein)
chain: T1 sequence (O14640 1-695)
